Reference: IntAct's records for PubMed 18387954

B1: Src substrate cortactin (Homo sapiens), Q14247 (parent)
chain: MWKASAGHAVSIAQDDAGADDWETDPDFVNDVSEKEQRWGAKTVQGSGHQEHINIHKLRENVFQEHQTLKEKELETGPKASHGYGGKFGVEQDRMDKSAVGHEYQSKLSKHCSQVDSVRGFGGKFGVQMDRVDQSAVGFEYQGKTEKHASQKDYSSGFGGKYGVQADRVDKSAVGFDYQGKTEKHESQRDYSKGFGGKYGIDKDKVDKSAVGFEYQGKTEKHESQKDYVKGFGGKFGVQTDRQDKCALGWDHQEKLQLHESQKDYKTGFGGKFGVQSERQDSAAVGFDYKEKLAKHESQQDYSKGFGGKYGVQKDRMDKNASTFEDVTQVSSAYQKTVPVEAVTSKTSNIRANFENLAKEKEQEDRRKAEAERAQRMAKERQEQEEARRKLEEQARAKTQTPPVSPAPQPTEERLPSSPVYEDAASFKAELSYRGPVSGTEPEPVYSMEAADYREASSQQGLAYATEAVYESAEAPGHYPAEDSTYDEYENDLGITAVALYDYQAAGDDEISFDPDDIITNIEMIDDGWWRGVCKGRYGLFPANYVELRQ
partner: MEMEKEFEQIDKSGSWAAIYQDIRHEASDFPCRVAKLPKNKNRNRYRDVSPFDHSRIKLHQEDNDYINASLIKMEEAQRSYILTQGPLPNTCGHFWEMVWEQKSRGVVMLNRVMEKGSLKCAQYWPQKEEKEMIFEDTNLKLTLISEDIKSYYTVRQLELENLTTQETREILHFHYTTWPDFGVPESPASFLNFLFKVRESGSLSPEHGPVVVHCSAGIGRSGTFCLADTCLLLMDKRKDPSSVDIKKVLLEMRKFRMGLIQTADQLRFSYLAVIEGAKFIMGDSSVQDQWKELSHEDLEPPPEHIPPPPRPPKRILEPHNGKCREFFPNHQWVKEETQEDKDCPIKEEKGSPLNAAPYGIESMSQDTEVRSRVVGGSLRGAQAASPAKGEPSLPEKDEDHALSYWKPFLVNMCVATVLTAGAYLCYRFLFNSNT

Variants of: B1
Details: with ptn1_human PTPN1, P18031
With Y446F the “effect of a mutation on the interaction” value was “disrupting interaction”.
